In patent US20230212285A1:

Assays:
[1] = biological target: human FcγRI, His6-tagged (human) (UniProt P12314); assay: SPR, 1:1 kinetic
[2] = biological target: human FcγRIIb, His6-tagged (human) (UniProt P31994); assay: SPR, steady state
Chain of human FcγRIIb, His6-tagged (human) (P31994 43-217 limits assumed): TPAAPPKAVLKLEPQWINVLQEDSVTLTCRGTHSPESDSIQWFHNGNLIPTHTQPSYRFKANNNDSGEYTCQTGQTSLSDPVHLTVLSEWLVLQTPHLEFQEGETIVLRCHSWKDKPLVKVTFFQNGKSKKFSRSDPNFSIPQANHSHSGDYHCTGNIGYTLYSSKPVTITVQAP

Chain of human FcγRI, His6-tagged (human) (P12314 16-288 limits assumed): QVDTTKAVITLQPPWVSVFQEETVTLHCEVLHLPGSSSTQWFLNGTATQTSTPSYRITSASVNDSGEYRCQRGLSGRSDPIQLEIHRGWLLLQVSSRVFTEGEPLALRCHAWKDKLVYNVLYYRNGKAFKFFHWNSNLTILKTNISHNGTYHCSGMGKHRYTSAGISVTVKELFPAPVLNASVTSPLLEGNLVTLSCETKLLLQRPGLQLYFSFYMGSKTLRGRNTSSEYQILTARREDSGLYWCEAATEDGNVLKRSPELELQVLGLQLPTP

isotype control human IgG4 (antibody)
Kd [1]: 0.00925 µM
Kd [2]: 23.1 µM
